From PMC7076939

Columns and labels:
[1] = system: ATTO-MBD2 (MBD2FLsc labeled with ATTO 565) (human); assay: fluorescence anisotropy; conditions: 24 nM DNA, text rounds to 25±5, 5-methylcytosine at one CpG, Anisotropy: 20 mM HEPES, 50 mM NaCl, 3 mM MgCl2, 3 mM EDTA, pH 7.5, 24 nM DNA, temperature not given, AFM: 20 mM HEPES, 10 mM Mg(OAc)2, 100 mM NaCl
[2] = system: MBD2FLsc (single-chain MBD2 with scMBD2-GATAD2A), unlabeled (human); assay: fluorescence anisotropy; conditions: 24 nM DNA, text rounds to 12±4, 5-methylcytosine at one CpG, Anisotropy: 20 mM HEPES, 50 mM NaCl, 3 mM MgCl2, 3 mM EDTA, pH 7.5, 24 nM DNA, temperature not given, AFM: 20 mM HEPES, 10 mM Mg(OAc)2, 100 mM NaCl
MeCP2 (human) = assay: fluorescence anisotropy; conditions: 24 nM DNA, text gives error 4.4, 5-methylcytosine at one CpG, Anisotropy: 20 mM HEPES, 50 mM NaCl, 3 mM MgCl2, 3 mM EDTA, pH 7.5, 24 nM DNA, temperature not given, AFM: 20 mM HEPES, 10 mM Mg(OAc)2, 100 mM NaCl
[3] = system: ATTO-MBD2 (MBD2FLsc labeled with ATTO 565) (human); assay: nanochannel single-molecule fluorescence; conditions: Anisotropy: 20 mM HEPES, 50 mM NaCl, 3 mM MgCl2, 3 mM EDTA, pH 7.5, 24 nM DNA, temperature not given, AFM: 20 mM HEPES, 10 mM Mg(OAc)2, 100 mM NaCl

“FAM-labeled dsDNA with one methylated CpG” was tested, and the Kd [1] was 0.0245 µM, the Kd [2] was 0.0119 µM and the Kd (MeCP2 (human)) was 0.0075 µM.

For methylated lambda DNA, the binding signal (fold bound vs unmethylated) ([3]; CpG 5-methylcytosine) was 10.

unmethylated lambda DNA was tested, and the binding signal (fraction of methylated) [3] was 0.1.
